# Measured values as given in publication PMC7246905, “Exploring the Enzymatic and Antibacterial Activities of Novel Mycobacteriophage Lysin B Enzymes” (International Journal of Molecular Sciences, 2020).
# Like-named read-outs stand apart in the source and are kept apart here.
# B1: LysB-D29 (LysB-His6) (Fromanvirus D29) (protein)
# chain: MSKPWLFTVHGTGQPDPLGPGLPADTARDVLDIYRWQPIGNYPAAAFPMWPSVEKGVAELILQIELKLDADPYADFAMAGYSQGAIVVGQVLKHHILPPTGRLHRFLHRLKKVIFWGNPMRQKGFAHSDEWIHPVAAPDTLGILEDRLENLEQYGFEVRDYAHDGDMYASIKEDDLHEYEVAIGRIVMKASGFIGGRDSVVAQLIELGQRPITEGIALAGAIIDALTFFARSRMGDKWPHLYNRYPAVEFLRQI
# B2: LysB-Omega (LysB-His6) (Mycobacterium phage Omega) (protein)
# chain: MSLWPEIRAMLNGEFYVPAGTIITANGTGVPDGAGPGFGADLARELERVAEGMWIWKWINYPAAVMPMRPSINTLRLALKEMIRTTPGKIVLSAYSQSAVAFAYVWRDDILNPDGELHDRLDDIVAVILYGNPVRAPGIAYGNELGGQSAPGKLNGHVTGGIAGPDCLRPEECVHPVTGRRIVLDFANAGDLYAAAPVGAEPWVKETEVGHNETLIYEAVMDFNGRDILAFAKEIAQILTMPLSQVVPLVQAIINGLSFLVQGPKAPHWTYTIGPAVDYLVRTGNELRKN
# B3: LysB-Saal (LysB-His6) (Mycobacterium phage Saal) (protein)
# chain: MRIDGQYVGLGLGDSSDEIRKIKAFMRRKFASYAGDLADTPLYDEAMTAAVAEMQARYSAAGQLRAGLYIPGIVGAETKYVMGYLPRPVVDTRPVLITVCGTGVPWWIGPDADTARAVEDKYLWQPIGYPAAPFPMGKSIAAAITETHNQANRWRERIETHGAALAGYSQGAVVVSELWMNHIAPEDGSLHWMKPHIEKAVTWGNPNRELGHVWADHGGSPRAPSNTQGVSSNGMRDTPPWWRDYAHQGDLYACTEPGDTQEVRNAIWQIVRDLDLFTGPDSLLAQVVELVQAPLPEAIAITKALLDAGMFFAKRTGPHVDYNVQPAIDYLRT
# What was measured:
# Conditions in all cases: 20 mM Tris-HCl, 100 mM NaCl, 0.1% Triton X-100, pH 8, 37 °C
# LysB-Obama12 (LysB-His6) = assay: p-nitrophenol release at […] nm, Michaelis-Menten; assay type: biochemical, Mycobacterium phage Obama12
# purified protein [1] = substrate: CCCC(=O)Oc1ccc([N+](=O)[O-])cc1; assay: purified protein; assay type: biochemical, Fromanvirus D29
# purified protein [2] = substrate: CCCCCCCC(=O)Oc1ccc([N+](=O)[O-])cc1; assay: purified protein; assay type: biochemical, Fromanvirus D29
# purified protein [3] = substrate: CCCCCCCCCCCC(=O)Oc1ccc([N+](=O)[O-])cc1; assay: purified protein; assay type: biochemical, Fromanvirus D29
# purified protein [4] = substrate: CCCCCCCCCCCCCC(=O)Oc1ccc([N+](=O)[O-])cc1; assay: purified protein; assay type: biochemical, Fromanvirus D29
# purified protein [5] = substrate: CCCCCCCCCCCCCCCC(=O)Oc1ccc([N+](=O)[O-])cc1; assay: purified protein; assay type: biochemical, Fromanvirus D29
# purified protein [6] = substrate: CCCC(=O)Oc1ccc([N+](=O)[O-])cc1; assay: purified protein; assay type: biochemical, Mycobacterium phage Omega
# purified protein [7] = substrate: CCCCCCCC(=O)Oc1ccc([N+](=O)[O-])cc1; assay: purified protein; assay type: biochemical, Mycobacterium phage Omega
# purified protein [8] = substrate: CCCCCCCCCCCC(=O)Oc1ccc([N+](=O)[O-])cc1; assay: purified protein; assay type: biochemical, Mycobacterium phage Omega
# purified protein [9] = substrate: CCCCCCCCCCCCCC(=O)Oc1ccc([N+](=O)[O-])cc1; assay: purified protein; assay type: biochemical, Mycobacterium phage Omega
# purified protein [10] = substrate: CCCCCCCCCCCCCCCC(=O)Oc1ccc([N+](=O)[O-])cc1; assay: purified protein; assay type: biochemical, Mycobacterium phage Omega
# purified protein [11] = substrate: CCCC(=O)Oc1ccc([N+](=O)[O-])cc1; assay: purified protein; assay type: biochemical, Mycobacterium phage Saal
# purified protein [12] = substrate: CCCCCCCC(=O)Oc1ccc([N+](=O)[O-])cc1; assay: purified protein; assay type: biochemical, Mycobacterium phage Saal
# purified protein [13] = substrate: CCCCCCCCCCCC(=O)Oc1ccc([N+](=O)[O-])cc1; assay: purified protein; assay type: biochemical, Mycobacterium phage Saal
# purified protein [14] = substrate: CCCCCCCCCCCCCC(=O)Oc1ccc([N+](=O)[O-])cc1; assay: purified protein; assay type: biochemical, Mycobacterium phage Saal
# purified protein [15] = substrate: CCCCCCCCCCCCCCCC(=O)Oc1ccc([N+](=O)[O-])cc1; assay: purified protein; assay type: biochemical, Mycobacterium phage Saal
molecule,measurement,setting,value
CCCC(=O)Oc1ccc([N+](=O)[O-])cc1 [p-nitrophenyl butyrate],Km,LysB-Obama12 (LysB-His6); read-out: pNPB (C4),1270 ± 60 µM
CCCCCCCCCCCCCC(=O)Oc1ccc([N+](=O)[O-])cc1 [p-nitrophenyl myristate],Km,LysB-Obama12 (LysB-His6); read-out: pNPM (C14),1270 ± 86.4 µM
CCCCCCCC(=O)Oc1ccc([N+](=O)[O-])cc1 [p-nitrophenyl octanoate],Km,LysB-Obama12 (LysB-His6); read-out: pNPO (C8),2670 ± 46.5 µM
CCCCCCCCCCCC(=O)Oc1ccc([N+](=O)[O-])cc1 [p-nitrophenyl laurate],Km,LysB-Obama12 (LysB-His6); read-out: pNPL (C12),3000 ± 20.1 µM
CCCCCCCCCCCCCCCC(=O)Oc1ccc([N+](=O)[O-])cc1 [p-nitrophenyl palmitate],Km,LysB-Obama12 (LysB-His6); read-out: pNPP (C16),800 ± 22.1 µM
B1,Km,purified protein [1],422.6 ± 29.4 µM
same,Vmax,purified protein [1],122 µmol/min/mg
same,kcat,purified protein [1],11.9 ± 0.187 s⁻¹
same,kcat/Km,purified protein [1],28300 ± 6130 M⁻¹ s⁻¹
same,Km,purified protein [2],42.3 ± 0.445 µM
same,Vmax,purified protein [2],9.85 µmol/min/mg
same,kcat,purified protein [2],0.961 ± 0.213 s⁻¹
same,kcat/Km,purified protein [2],22700 ± 723 M⁻¹ s⁻¹
same,Km,purified protein [3],19.6 ± 3.094 µM
same,Vmax,purified protein [3],7.55 µmol/min/mg
same,kcat,purified protein [3],0.738 ± 0.026 s⁻¹
same,kcat/Km,purified protein [3],37700 ± 6030 M⁻¹ s⁻¹
same,Km,purified protein [4],24.08 ± 0.505 µM
same,Vmax,purified protein [4],3 µmol/min/mg
same,kcat,purified protein [4],0.294 ± 0.0159 s⁻¹
same,kcat/Km,purified protein [4],12200 ± 512 M⁻¹ s⁻¹
same,Km,purified protein [5],37.7 ± 7.134 µM
same,Vmax,purified protein [5],2.73 µmol/min/mg
same,kcat,purified protein [5],0.242 ± 0.0168 s⁻¹
same,kcat/Km,purified protein [5],6330 ± 783 M⁻¹ s⁻¹
B2,Km,purified protein [6],618.8 ± 24.98 µM
same,Vmax,purified protein [6],112 µmol/min/mg
same,kcat,purified protein [6],11.7 ± 0.313 s⁻¹
same,kcat/Km,purified protein [6],19000 ± 733 M⁻¹ s⁻¹
same,Km,purified protein [7],193.3 ± 2.258 µM
same,Vmax,purified protein [7],15.7 µmol/min/mg
same,kcat,purified protein [7],7.54 ± 0.165 s⁻¹
same,kcat/Km,purified protein [7],39000 ± 6070 M⁻¹ s⁻¹
same,Km,purified protein [8],280.8 ± 3.26 µM
same,Vmax,purified protein [8],79.8 µmol/min/mg
same,kcat,purified protein [8],8.4 ± 0.339 s⁻¹
same,kcat/Km,purified protein [8],40200 ± 2260 M⁻¹ s⁻¹
same,Km,purified protein [9],98.72 ± 5.292 µM
same,Vmax,purified protein [9],22.3 µmol/min/mg
same,kcat,purified protein [9],2.35 ± 0.0785 s⁻¹
same,kcat/Km,purified protein [9],23800 ± 783 M⁻¹ s⁻¹
same,Km,purified protein [10],24.4 ± 3.116 µM
same,Vmax,purified protein [10],1.45 µmol/min/mg
same,kcat,purified protein [10],0.152 ± 0.0184 s⁻¹
same,kcat/Km,purified protein [10],6230 ± 4950 M⁻¹ s⁻¹
B3,Km,purified protein [11],4172.12 ± 20.104 µM
same,kcat/Km,purified protein [11],44700 ± 7630 M⁻¹ s⁻¹
same,Km,purified protein [12],1519.25 ± 38.596 µM
same,kcat/Km,purified protein [12],20300 ± 230 M⁻¹ s⁻¹
same,Km,purified protein [13],1476.39 ± 33.184 µM
same,kcat/Km,purified protein [13],71800 ± 3350 M⁻¹ s⁻¹
same,Km,purified protein [14],956.7 ± 12.93 µM
same,kcat/Km,purified protein [14],54000 ± 3520 M⁻¹ s⁻¹
same,Km,purified protein [15],2833.32 ± 40.824 µM
same,kcat/Km,purified protein [15],19700 ± 2420 M⁻¹ s⁻¹
